# Measured values: article doi:10.1101/2024.12.03.626679, “Structure of the SMYD2-PARP1 Complex Reveals Both Productive and Allosteric Modes of Peptide Binding” (bioRxiv, 2024)
# B1: PARP1 peptide (13-residue synthetic peptide, human PARP1 residues 522-534) (peptide)
# peptide: RMKLTLKGGAAVD
# notes: PARP1, human, residues 522-534, holds the target lysine Lys528; also called Lys528-containing PARP1 peptide; source: synthetic peptide (CPC Scientific)
# Legend:
# [1] = biological target: T1, Full-length human SMYD2 (residues 1-433), wild type (human, UniProt Q9NRG4 1-433); assay: ITC; NanoITC SV, 27°C, 25 mM Tris pH 7.5, 50 mM NaCl; 40 μM SMYD2 in the cell, 631 μM PARP1 peptide in the syringe, 16 injections of 15 μL; one-site, two-site and binding polynomial models; details: both partners purified
# T1 construct: SMYD2, human, full length, residues 1-433; Tag cut off with yeast SUMO Protease 1, native N-terminus; Crystals held AdoHcy; also called SMYD2-WT; wild-type SMYD2; not shown: 6xHis-SUMO, N-terminal, cleaved
# SMYD2-L351A/W356A = SMYD2-L351A/W356A (human, UniProt Q9NRG4 1-433, L351A | W356A); assay: cell-based or functional assay
# Chain of SMYD2-L351A/W356A (Q9NRG4 whole entry L351A/W356A): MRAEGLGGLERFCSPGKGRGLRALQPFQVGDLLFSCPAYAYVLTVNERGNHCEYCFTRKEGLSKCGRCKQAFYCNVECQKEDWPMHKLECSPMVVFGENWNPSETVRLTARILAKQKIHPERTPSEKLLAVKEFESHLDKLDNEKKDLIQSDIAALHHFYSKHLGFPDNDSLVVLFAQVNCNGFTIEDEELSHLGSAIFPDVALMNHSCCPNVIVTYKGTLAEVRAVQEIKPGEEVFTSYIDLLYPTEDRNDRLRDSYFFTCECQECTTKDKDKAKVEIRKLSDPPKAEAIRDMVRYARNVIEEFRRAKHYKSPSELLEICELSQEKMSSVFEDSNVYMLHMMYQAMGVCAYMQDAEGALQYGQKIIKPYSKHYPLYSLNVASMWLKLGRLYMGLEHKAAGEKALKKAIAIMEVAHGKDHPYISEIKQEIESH
# T1 sequence (Q9NRG4 whole entry, the tested form may be a part): as the sequence (Q9NRG4 whole entry L351A/W356A) above, with A351L, A356W counted along it
binder,measurement,setting,value
B1,dH1 (binding polynomial),[1],-1 kcal/mol
same,dH2 (binding polynomial),[1],-1.72 kcal/mol
same,stoichiometry N,[1],2
same,"KM of steady-state methyltransferase kinetics (MTase-Glo) with the PARP1 peptide as substrate, against wild-type SMYD2",SMYD2-L351A/W356A,4 fold
